Consider one molecule from US20240301031A1 (JIANGSU HENGRUI PHARMACEUTICALS, published 2024).

Read-outs that look alike come from different tables or passages of the source.

For assay [1], the target named is T1, BAFF (R&D Systems, 7537-BF) (UniProt Q9Y275 134-285). In words: cell-based or functional assay.
Assay [2] concerns the target T2, human APRIL (5860-AP-010/CF, R&D Systems) (human, UniProt O75888 115-250, limits assumed).
T2 construct: Bought protein
T2 sequence (looked up): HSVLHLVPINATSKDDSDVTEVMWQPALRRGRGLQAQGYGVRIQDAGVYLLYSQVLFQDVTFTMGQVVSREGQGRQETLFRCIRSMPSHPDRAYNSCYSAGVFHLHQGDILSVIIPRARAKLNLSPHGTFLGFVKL
Put plainly: competition ELISA: biotin-labeled APRIL to coated BCMA. How it is done: (§1) A receptor protein was diluted to 2 μg/mL with PBS at pH 7.4 (BasalMedia, B320) and added to a 96-well microplate (Corning, 3590) at 100 μL/well. The plate was incubated at 4° C. overnight. After the liquid was discarded, 200 μL of 1% Casein blocking solution (Thermo, 37528) was added to each well for blocking, and the plate was incubated at 37° C. for 2 h. After the blocking was completed, the blocking solution was discarded, and the plate was washed 3 times with a PBST buffer (PBS at pH 7.4 containing 0.1% tween-20) for later use. A biotin-labeled ligand protein at a fixed concentration was mixed with the antibody or fusion protein diluted in gradient, pre-incubated at 37° C. for 30 min, and added to a blocked microplate. The plate was incubated at 37° C. for 1.5 h. After the incubation was completed, the plate was washed 3 times with PBST. 100 μL of streptavidin-HRP (Invitrogen, 434323, diluted at a ratio of 1:4000) was added to each well, and the plate was incubated at 37° C. for 1 h. The supernatant was removed, and the plate was washed 3 times with PBST. […] The plate was read for absorbance values at 450 nm on a microplate reader, the curves for the inhibition of the binding of the ligands to the receptors were fitted with software, and the IC₅₀ values were calculated. […]
(ELISA stands for enzyme-linked immunosorbent assay.)

Assay [3] concerns the target T1, BAFF (R&D Systems, 7537-BF). In words: cell-based or functional assay. The source holds these as a separate data set.
For assay [4], the target named is T3, human BAFF (10056-HNCH, Sino biological) (human, UniProt Q9Y275 134-285).
T3 construct: Bought protein
Put plainly: competition ELISA: biotin-labeled BAFF to coated BAFF-R. The gist of the method: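 Receptor coated at 2 μg/mL in PBS pH 7.4 overnight at 4° C and casein-blocked; fixed-concentration biotinylated ligand preincubated 30 min at 37° C with serially diluted antibody/fusion protein, then bound 1.5 h at 37° C. Streptavidin-HRP/TMB read at 450 nm; IC₅₀ from fitted binding-inhibition curves.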

Assay [5] has as its target T3, human BAFF (10056-HNCH, Sino biological). Put plainly: competition ELISA: BAFF-R coated on the plate, biotin-labelled BAFF at a fixed concentration pre-incubated with the diluted sample, streptavidin-HRP, OD450 (blocked ligand-receptor pair: BAFF/BAFF-R). Here is the method:
as §1

In assay [6] the target is T4, BAFF (ACROBiosystems, BAF-H5248) (UniProt Q9Y275 134-285).
T4 construct: Bought protein used in the ELISA with coated test sample
In words: ELISA, fusion protein coated, BAFF titrated, Anti-His-HRP. Here is the method: The binding activity of the TACI fusion proteins for BAFF and APRIL was assayed by the ELISA method (coating a test fusion protein sample). The specific procedures were as follows:
The test sample was diluted to 2 μg/mL with a PBS (BasalMedia, B320) buffer at pH 7.4 and added to a 96-well microplate (Corning, 3590) at 100 μL/well. The plate was incubated at 4° C. overnight. After the liquid was discarded, 300 μL of 5% skim milk (BD, 232100) diluted with PBS was added to each well for blocking, and the plate was incubated at 37° C. for 2 h. After the blocking was completed, the blocking solution was discarded, and the plate was washed 3 times with a PBST buffer (PBS at pH 7.4 containing 0.1% tween-20). 100 μL of BAFF (ACROBiosystems, BAF-H5248) or APRIL (R&D Systems, 5860-AP-010/CF) diluted in a gradient was added to each well, and the plate was incubated at 37° C. for 1 h. After the incubation, the plate was washed 3 times with PBST. When detecting the binding to BAFF, 100 μL of Anti-His-HRP (Sino biological, 105327-MM02T-H, diluted at a ratio of 1:2000) was added to each well; when detecting the binding to APRIL, 100 μL of anti-HA-HRP (Abcam, ab1190, diluted at a ratio of 1:4000) was added to each well. The plate was incubated at 37° C. for 1 h. The plate was washed 3 times with PBST. 100 μL of TMB chromogenic substrate (KPL, 5120-0077) was added to each well, and the plate was incubated at room temperature for 10-15 min. The reaction was stopped by adding 50 μL of 1 M H₂SO₄ to each well. The plate was read for absorbance values at 450 nm on a microplate reader, the binding curves of the antibodies to an antigen were fitted with software, and the EC₅₀ values were calculated.

Assay [7] has as its target T3, human BAFF (10056-HNCH, Sino biological). Put plainly: competition ELISA: biotin-labeled BAFF to coated TACI. Here is the method: as §1

B1: RCT-18 (Telitacicept) (Fc fusion)
chain: SRVDQEERFPQGLWTGVAMRSCPEEQYWDPLLGTCMSCKTICNHQSQRTCAAFCRSLSCRKEQGKFYDHLLRDCISCASICGQHPKQCAYFCENKLRSPVNLPPELDKTHTCPPCPAPEAEGAPSVFLFPPKPKDTLMISRTPEVTCVVVDVSHEDPEVKFNWYVDGVEVHNAKTKPREEQYNSTYRVVSVLTVLHQDWLNGKEYKCKVSNKALPSSIEKTISKAKGQPREPQVYTLPPSRDELTKNQVSLTCLVKGFYPSDIAVEWESNGQPENNYKTTPPVLDSDGSFFLYSKLTVDKSRWQQGNVFSCSVMHEALHNHYTQKSLSLSPGK
notes: Positive control; TACI part is positions 13-118 of the extracellular region of human TACI, the rest is Fc
What is called IC50 is the concentration needed to halve the response being measured. As usually defined, the EC50 is the concentration giving half of the maximal effect. A higher EC50 goes with a need for much substance. Regarding B1, the entries for the “IC50 (nM) for the inhibition of the BAFF-induced B cell proliferation” value in assay [1] and in assay [3] were 0.382 nM and 0.386 nM, respectively. The figures for the concentration for half-maximal inhibition (IC50) in assay [2], in assay [4] and in assay [7] were 25.1 nM, 27.5 nM and 0.779 nM, respectively. Also, the “IC50 (read off the curve)” value in assay [5] was approximately 3 nM. Besides, the EC50 in assay [6] is 96.2 nM.
